Measurements taken from patent US20200115714A1 (GEORGIA TECH RESEARCH, published 2020).

What was measured:
[1] = target: T1, E. coli fatty acid biosynthesis acyl carrier protein (E. coli AcpP), P0A6A8
T1 chain: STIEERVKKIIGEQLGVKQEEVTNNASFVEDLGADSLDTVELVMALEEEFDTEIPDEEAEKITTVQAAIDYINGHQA

15N-octanoyl-AcpP = target: T2, 15N-octanoyl-AcpP (Escherichia coli, UniProt P0A6A8 2-78, octanoyl group, 15N-labelled (printed as 15N-octanoyl-AcpP); attachment site not given); assay: NMR titrations between 15N-octanoyl-AcpP and the AbTEs
T2 construct: Purified, labelled AcpP of the NMR titrations; also called 15N-AcpP; E. coli ACP

Row | Binder | secreted MCFAs, E. coli (GC/MS) [1] | secreted MCFAs, E. coli MG1655, 24 hrs (GC/MS) [1] | secreted MCFAs, E. coli, 72 hrs (GC/MS) [1] | further results
1 | AbTE:G17E (protein) MGKTILILGDSLSAGYEINPEQGWVALLQKRLDQQFPKQHKVINASVSGETTSGALARLPKLLTTYRPNVVVIELGGNDALRGQPPQMIQSNLEKLIQHSQKAKSKVVVFGMKIPPNYGTAYSQAFENNYKVVSQTYQVKLLPFFLDGVAGHKSLMQNDQIHPNAKAQSILLNNAYPYIKGAL | ˜21 mg/L and 14 mg/L of secreted MCFAs, respectively | – | – | –
2 | AbTE:G17R (protein) MGKTILILGDSLSAGYRINPEQGWVALLQKRLDQQFPKQHKVINASVSGETTSGALARLPKLLTTYRPNVVVIELGGNDALRGQPPQMIQSNLEKLIQHSQKAKSKVVVFGMKIPPNYGTAYSQAFENNYKVVSQTYQVKLLPFFLDGVAGHKSLMQNDQIHPNAKAQSILLNNAYPYIKGAL | – | ˜76 mg/L of secreted MCFAs | cultivating E. coli expressing AbTE:G17R for 72 hrs did not result in any changes in MCFA titers | –
3 | AbTE:G17E/A165E (protein) MGKTILILGDSLSAGYEINPEQGWVALLQKRLDQQFPKQHKVINASVSGETTSGALARLPKLLTTYRPNVVVIELGGNDALRGQPPQMIQSNLEKLIQHSQKAKSKVVVFGMKIPPNYGTAYSQAFENNYKVVSQTYQVKLLPFFLDGVAGHKSLMQNDQIHPNEKAQSILLNNAYPYIKGAL | ˜21 mg/L and 14 mg/L of secreted MCFAs, respectively | – | – | –
4 | AbTE:T120R/A121R (protein) MGKTILILGDSLSAGYGINPEQGWVALLQKRLDQQFPKQHKVINASVSGETTSGALARLPKLLTTYRPNVVVIELGGNDALRGQPPQMIQSNLEKLIQHSQKAKSKVVVFGMKIPPNYGRRYSQAFENNYKVVSQTYQVKLLPFFLDGVAGHKSLMQNDQIHPNAKAQSILLNNAYPYIKGAL | – | – | – | secreted MCFAs, E. coli, 24 hrs (GC/MS) [1]: AbTE:T120R/A121R produced ˜45 mg/L of secreted MCFAs
5 | AbTE:G17R/A165E (protein) MGKTILILGDSLSAGYRINPEQGWVALLQKRLDQQFPKQHKVINASVSGETTSGALARLPKLLTTYRPNVVVIELGGNDALRGQPPQMIQSNLEKLIQHSQKAKSKVVVFGMKIPPNYGTAYSQAFENNYKVVSQTYQVKLLPFFLDGVAGHKSLMQNDQIHPNEKAQSILLNNAYPYIKGAL | AbTE:G17R/A165E resulted in ˜57 mg/L of secreted MCFAs | – | – | –
6 | AbTE:G17E/A165R (protein) MGKTILILGDSLSAGYEINPEQGWVALLQKRLDQQFPKQHKVINASVSGETTSGALARLPKLLTTYRPNVVVIELGGNDALRGQPPQMIQSNLEKLIQHSQKAKSKVVVFGMKIPPNYGTAYSQAFENNYKVVSQTYQVKLLPFFLDGVAGHKSLMQNDQIHPNRKAQSILLNNAYPYIKGAL | This favorable effect in secreted MCFAs or secreted fatty acids of all chain lengths is not seen in AbTE:G17E/A165R | – | – | –
7 | Acinetobacter baylyi acyl-ACP thioesterase (AbTE) wild type (protein) MGKTILILGDSLSAGYGINPEQGWVALLQKRLDQQFPKQHKVINASVSGETTSGALARLPKLLTTYRPNVVVIELGGNDALRGQPPQMIQSNLEKLIQHSQKAKSKVVVFGMKIPPNYGTAYSQAFENNYKVVSQTYQVKLLPFFLDGVAGHKSLMQNDQIHPNAKAQSILLNNAYPYIKGAL | – | ˜29 mg/L of secreted MCFAs | from ˜29 mg/L to ˜79 mg/L | –
8 | AbTE:G17R/A165R (protein) MGKTILILGDSLSAGYRINPEQGWVALLQKRLDQQFPKQHKVINASVSGETTSGALARLPKLLTTYRPNVVVIELGGNDALRGQPPQMIQSNLEKLIQHSQKAKSKVVVFGMKIPPNYGTAYSQAFENNYKVVSQTYQVKLLPFFLDGVAGHKSLMQNDQIHPNRKAQSILLNNAYPYIKGAL | – | ˜98 mg/L of secreted MCFAs | increased from 98 mg/L to 131 mg/L when extending the cultivation time from 24 hrs to 72 hrs | secreted MCFA titers against AbTE:G17R [1]: a 29% increase in secreted MCFA titers when compared to expression of AbTE:G17R; secreted MCFA titers against AbTE:WT [1]: a more than 3-fold in secreted MCFA titers when compared to AbTE:WT
9 | AbTE:G17R with C-terminal His6-tag (pET-28b-AbTE:G17R) (enzyme, Purified protein; also called pET-AbTE:G17R) MGKTILILGDSLSAGYRINPEQGWVALLQKRLDQQFPKQHKVINASVSGETTSGALARLPKLLTTYRPNVVVIELGGNDALRGQPPQMIQSNLEKLIQHSQKAKSKVVVFGMKIPPNYGTAYSQAFENNYKVVSQTYQVKLLPFFLDGVAGHKSLMQNDQIHPNAKAQSILLNNAYPYIKGALHHHHHH | – | – | – | binding result (15N-octanoyl-AcpP): binds
10 | AbTE:G17R/A165R with C-terminal His6-tag (pET-28b-AbTE:G17R/A165R) (enzyme, Purified protein; also called pET-AbTE:G17R/A165R) MGKTILILGDSLSAGYRINPEQGWVALLQKRLDQQFPKQHKVINASVSGETTSGALARLPKLLTTYRPNVVVIELGGNDALRGQPPQMIQSNLEKLIQHSQKAKSKVVVFGMKIPPNYGTAYSQAFENNYKVVSQTYQVKLLPFFLDGVAGHKSLMQNDQIHPNRKAQSILLNNAYPYIKGALHHHHHH | – | – | – | binding result (15N-octanoyl-AcpP): binds
